The values that follow come from patent US20260167959A1, “APTAZYME-BASED REGULATABLE GENE EXPRESSION SYSTEMS” (REJUVENATE BIO INC, priority 2022, published 2026).

To fix the notation:
B1: RA089 (nucleic acid)
DNA: GCGCGTCCTGGATTCGCGGAAACGCGTACATCCAGCTGACGAGTCCCAAATAGGACCGGAATACCAGCATCGTCTTGATGCCCTTGGAAGTCCGGAAACGCGC
modifications: expressed or natural sequence
B2: RA100 (nucleic acid)
DNA: GCGCGTCCTGGATTCGCGGAAACGCGTACATCCAGCTGACCGGAATACCAGCATCGTCTTGATGCCCTTGGAAGTCCGGAGTCCCAAATAGGACGAAACGCGC
modifications: expressed or natural sequence
B3: RA081 (nucleic acid)
DNA: GCGCGTCCTGGATTCGCGGAAACGCGTACATCCAGCTGACGAGTCCCAAGGAATACCAGCATCGTCTTGATGCCCTTGGAAGTCCATAGGACGAAACGCGC
modifications: expressed or natural sequence
B4: RA093 (nucleic acid)
DNA: AGTGATACCAGCATCGTCTTGATGCCCTTGGCAGCACTGCGCGTCCTGGATTCGCGGAAACGCGTACATCCAGCTGACGAGTCCCAAATAGGACGAAACGCGC
modifications: expressed or natural sequence
B5: RA096 (nucleic acid)
DNA: GCGCGTCAGTGATACCAGCATCGTCTTGATGCCCTTGGCAGCACTCTGGATTCGCGGAAACGCGTACATCCAGCTGACGAGTCCCAAATAGGACGAAACGCGC
modifications: expressed or natural sequence
B6: RA092 (nucleic acid)
DNA: GCGCGTCCTGGATTCGCGGAAACGCGTACATCCAGCTGACGAGTCCCAAATAGGACCGGAATACCAGCATCGTCTTGATGCCCTTGGAAGTCCGGCGAAACGCGC
modifications: expressed or natural sequence
B7: RA105 (nucleic acid)
DNA: GCGCGTCCTGGAGAATACCAGCATCGTCTTGATGCCCTTGGAAGTCTCGATTCGCGGAAACGCGTACATCCAGCTGACGAGTCCCAAATAGGACGAAACGCGC
modifications: expressed or natural sequence
B8: RA101 (nucleic acid)
DNA: GCGCGTCCTGGATTCGCGGAAACGCGTACATCCAGCTGACGAGTCCCAAATAGGACGAACGGAATACCAGCATCGTCTTGATGCCCTTGGAAGTCCGACGCGC
modifications: expressed or natural sequence
B9: RA087 (nucleic acid)
DNA: GCGCGTCCTGGATTCGCGGAAACGCGTACATCCAGCTGACGAGCGAGAATACCAGCATCGTCTTGATGCCCTTGGAAGTCTCGTCCCAAATAGGACGAAACGCGC
modifications: expressed or natural sequence
B10: RA088 (nucleic acid)
DNA: GCGCGTCCTGGATTCGCGGAAACGCGTACATCCCGAGAATACCAGCATCGTCTTGATGCCCTTGGAAGTCTCGAGCTGACGAGTCCCAAATAGGACGAAACGCGC
modifications: expressed or natural sequence
B11: RA098 (nucleic acid)
DNA: GCGCGTCCTGGATTCGCGGAAACGCGTACATCCCCGGAATACCAGCATCGTCTTGATGCCCTTGGAAGTCCGGAGCTGACGAGTCCCAAATAGGACGAAACGCGC
modifications: expressed or natural sequence
B12: RA085 (nucleic acid)
DNA: GCGCGTCCTGGATTCGCGGAAACGCGTACATCCAGAATACCAGCATCGTCTTGATGCCCTTGGAAGTCTAGCTGACGAGTCCCAAATAGGACGAAACGCGC
modifications: expressed or natural sequence
B13: RA086 (nucleic acid)
DNA: GCGCGTCCTGGATTCGCGGAAACGCGGAATACCAGCATCGTCTTGATGCCCTTGGAAGTCCGCGTACATCCAGCTGACGAGTCCCAAATAGGACGAAACGCGC
modifications: expressed or natural sequence
B14: RA104 (nucleic acid)
DNA: GCGCGTCCTGGATTCGCGGAAACGCGTACATCCAGCTGACGAGTCCCAAATCGAGAATACCAGCATCGTCTTGATGCCCTTGGAAGTCTCGAGGACGAAACGCGC
modifications: expressed or natural sequence
B15: RA094 (nucleic acid)
DNA: GCGCGTCCTGGATTCGCGGAGGAATACCAGCATCGTCTTGATGCCCTTGGAAGTCCAACGCGTACATCCAGCTGACGAGTCCCAAATAGGACGAAACGCGC
modifications: expressed or natural sequence
B16: RA097 (nucleic acid)
DNA: GCGCGTCCTGGATTCGCGGAAACGCGTACATCCAGCTGACGAGTCCCAGAATACCAGCATCGTCTTGATGCCCTTGGAAGTCTAAATAGGACGAAACGCGC
modifications: expressed or natural sequence
B17: RA095 (nucleic acid)
DNA: GCGCGTCAGAATACCAGCATCGTCTTGATGCCCTTGGAAGTCTCTGGATTCGCGGAAACGCGTACATCCAGCTGACGAGTCCCAAATAGGACGAAACGCGC
modifications: expressed or natural sequence
B18: RA102 (nucleic acid)
DNA: GCGCGTCGGAATACCAGCATCGTCTTGATGCCCTTGGAAGTCCCTGGATTCGCGGAAACGCGTACATCCAGCTGACGAGTCCCAAATAGGACGAAACGCGC
modifications: expressed or natural sequence
B19: RA009 (nucleic acid)
DNA: GCGCGTCCTGGATTCGCGGAAACGCGTACATCCAGCTGACGAGTCCCAAATAGGACGACCGGAATACCAGCATCGTCTTGATGCCCTTGGAAGTCCGGAACGCGC
modifications: expressed or natural sequence
B20: RA083 (nucleic acid)
DNA: GCGCGTCCGGAATACCAGCATCGTCTTGATGCCCTTGGAAGTCCTGGATTCGCGGAAACGCGTACATCCAGCTGACGAGTCCCAAATAGGACGAAACGCGC
modifications: expressed or natural sequence
B21: RA103 (nucleic acid)
DNA: GCGCGTCCTGGATTCGCGGAAACGCGTACATCCAGCTGACGGAATACCAGCATCGTCTTGATGCCCTTGGAAGTCCGAGTCCCAAATAGGACGAAACGCGC
modifications: expressed or natural sequence
B22: RA099 (nucleic acid)
DNA: GCGCGTCCTGGATTCGCGGAAACGCGTACATAGTGATACCAGCATCGTCTTGATGCCCTTGGCAGCACTCCAGCTGACGAGTCCCAAATAGGACGAAACGCGC
modifications: expressed or natural sequence
B23: RA091 (nucleic acid)
DNA: GGAATACCAGCATCGTCTTGATGCCCTTGGAAGTCCGCGCGTCCTGGATTCGCGGAAACGCGTACATCCAGCTGACGAGTCCCAAATAGGACGAAACGCGC
modifications: expressed or natural sequence
B24: RA084 (nucleic acid)
DNA: GCGCGTCCTGGAGAGAATACCAGCATCGTCTTGATGCCCTTGGAAGTCTCTTCGCGGAAACGCGTACATCCAGCTGACGAGTCCCAAATAGGACGAAACGCGC
modifications: expressed or natural sequence
B25: RA090 (nucleic acid)
DNA: GCGCGTCCTGGAAGTGATACCAGCATCGTCTTGATGCCCTTGGCAGCACTTTCGCGGAAACGCGTACATCCAGCTGACGAGTCCCAAATAGGACGAAACGCGC
modifications: expressed or natural sequence
B26: RA008 (nucleic acid)
DNA: GCGCGTCCTGGATTCGCGGAAACGGAATACCAGCATCGTCTTGATGCCCTTGGAAGTCCGCGCGTACATCCAGCTGACGAGTCCCAAATAGGACGAAACGCGC
modifications: expressed or natural sequence
B27: RA082 (nucleic acid)
DNA: GCGCGTCCTGGATTCGAGAATACCAGCATCGTCTTGATGCCCTTGGAAGTCTCGGAAACGCGTACATCCAGCTGACGAGTCCCAAATAGGACGAAACGCGC
modifications: expressed or natural sequence

The test system of this series is Renilla luciferase RNA. The series is described as follows: Barcoded aptazyme variant library screen: un-cleaved Renilla luciferase RNA by barcode read counts, HEK293-T cells. The format is cell-based. The following applies: un-cleaved Renilla luciferase RNA, HEK293-T cells cultured with 1 mM theophylline (ON) over without theophylline (OFF); barcode read counts, triplicate. The essentials: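 Aptazyme variants (seven theophylline aptamers inserted after each T3H48 ribozyme nucleotide, 9-nt barcoded) cloned into the 3′ UTR of Renilla luciferase in psiCHECK-2; cells cultured ± theophylline, in triplicate. RNA and DNA barcodes amplified and sequenced; normalized read counts gave un-cleaved RNA fraction and ON/OFF fold-change.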
Take B1: the “Fold change in RNA expression between the ON state and the OFF state” value (“Fold change” below) stood at 1.7 fold. As for B2, the “Fold change” value worked out at 1.6 fold. For the molecule B3, the “Fold change” value came out at 1.7 fold. On to B4, for which the “Fold change” value was 1.6 fold.

B5: the “Fold change” value is given as 1.6 fold. For B6, the “Fold change” value is 1.6 fold. The same measure for B7: 1.6 fold; for B8: 1.6 fold. Consider B9, for which the “Fold change” value is listed as 1.7 fold. In the case of B10, the “Fold change” value came to 1.7 fold.

Take B11: the “Fold change” value was found to be 1.6 fold.

On to B12, for which the “Fold change” value amounted to 1.7 fold.

Turning to B13, the “Fold change” value worked out at 1.7 fold. B14: the “Fold change” value turned out to be 1.6 fold. Regarding B15, the “Fold change” value stood at 1.6 fold.

For B16, the “Fold change” value came to 1.6 fold. With B17, the “Fold change” value is listed as 1.6 fold.

In the case of B18, the “Fold change” value was found to be 1.6 fold. Regarding B19, the “Fold change” value worked out at 3.8 fold.

For the molecule B20, the “Fold change” value came out at 1.7 fold. In the case of B21, the “Fold change” value was 1.6 fold. The same measure for B22: 1.6 fold.

As for B23, the “Fold change” value is 1.6 fold. On to B24, for which the “Fold change” value amounted to 1.7 fold. Turning to B25, the “Fold change” value is recorded as 1.7 fold.

On to B26, for which the “Fold change” value turned out to be 4.2 fold. Take B27: the “Fold change” value is reported as 1.7 fold.
